Experimental data reported in article PMC5385372.

Biological target: sGFP-foldon
Experiment: single-molecule fluorescence brightness analysis; GFP-fused proteins expressed in LTE (2-3 h, 27 °C), diluted about 10 times in buffer A (25 mM HEPES, 50 mM NaCl), 1-100 nanomolar, freely diffusing through a confocal volume, room temperature; also with serial dilution of the plasmid to vary the final expression level

sGFP-foldon, sequence (P10104 2-487): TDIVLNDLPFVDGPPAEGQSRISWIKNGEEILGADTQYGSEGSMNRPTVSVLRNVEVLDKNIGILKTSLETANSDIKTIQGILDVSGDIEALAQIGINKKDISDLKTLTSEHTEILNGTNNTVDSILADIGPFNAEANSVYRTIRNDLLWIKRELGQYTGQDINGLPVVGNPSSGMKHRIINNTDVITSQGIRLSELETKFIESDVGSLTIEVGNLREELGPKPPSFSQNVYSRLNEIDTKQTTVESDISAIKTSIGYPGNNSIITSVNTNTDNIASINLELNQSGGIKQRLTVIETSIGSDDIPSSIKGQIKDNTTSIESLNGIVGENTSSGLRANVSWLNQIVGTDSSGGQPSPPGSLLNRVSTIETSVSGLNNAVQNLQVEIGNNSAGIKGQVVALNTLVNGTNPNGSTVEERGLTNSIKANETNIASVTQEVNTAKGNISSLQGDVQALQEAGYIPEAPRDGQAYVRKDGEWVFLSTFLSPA

sGFP-foldon (domain or fragment)
stoichiometry N: 3
